For one data set, the target named is T1, NupC (Escherichia coli, UniProt P0AFF2).
T1 construct: full-length, C-terminal biotin-acceptor domain tag (pT7-5/-BAD), expressed in E. coli JW2389 (nupC knockout)
T1 sequence (P0AFF2 1-400): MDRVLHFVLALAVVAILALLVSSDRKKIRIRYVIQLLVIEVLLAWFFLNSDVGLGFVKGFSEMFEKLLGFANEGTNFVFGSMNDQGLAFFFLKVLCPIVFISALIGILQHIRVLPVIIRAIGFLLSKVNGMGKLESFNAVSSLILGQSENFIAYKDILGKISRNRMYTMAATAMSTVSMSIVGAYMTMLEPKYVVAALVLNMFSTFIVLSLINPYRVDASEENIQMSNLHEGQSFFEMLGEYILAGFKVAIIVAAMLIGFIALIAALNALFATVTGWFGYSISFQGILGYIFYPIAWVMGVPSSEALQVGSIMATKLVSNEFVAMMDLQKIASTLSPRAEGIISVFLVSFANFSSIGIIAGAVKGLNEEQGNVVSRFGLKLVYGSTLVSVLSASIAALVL
As to the kind of experiment: inhibition of [3H]-gemcitabine uptake in E. coli JW2389. Format: cell-based. The note with it: read-out: Inhibition by Other Nucleosides / Ki (μM) (Adenosine). The source says: inhibition of [3H]-gemcitabine uptake in E. coli JW2389 on NupC

The next data set concerns the target T2, KpNupC (Klebsiella pneumoniae, UniProt A0A0H3H172).
T2 construct: gene KPHS_38160; full-length, C-terminal biotin-acceptor domain tag (pT7-5/-BAD), expressed in E. coli JW2389 (nupC knockout)
The data set is described as above. The format is cell-based. An excerpt: inhibition of [3H]-gemcitabine uptake in E. coli JW2389 on KpNupC

The next data set concerns the target T3, CfNupC (Citrobacter freundii, UniProt A0A0D7LF62).
T3 construct: gene nupC; full-length, C-terminal biotin-acceptor domain tag (pT7-5/-BAD), expressed in E. coli JW2389 (nupC knockout)
The description is as above. The format is cell-based. The note with it: read-out: Inhibition by Other Nucleosides / Ki (μM) (Cytidine). The source says:
inhibition of [3H]-gemcitabine uptake in E. coli JW2389 on CfNupC

Another data set concerns the target T4, CfNupG (Citrobacter freundii, UniProt A0A0D7LJ63).
T4 construct: gene nupG; full-length, C-terminal biotin-acceptor domain tag (pT7-5/-BAD), expressed in E. coli JW2389 (nupC knockout)
T4 sequence (A0A0D7LJ63 1-418): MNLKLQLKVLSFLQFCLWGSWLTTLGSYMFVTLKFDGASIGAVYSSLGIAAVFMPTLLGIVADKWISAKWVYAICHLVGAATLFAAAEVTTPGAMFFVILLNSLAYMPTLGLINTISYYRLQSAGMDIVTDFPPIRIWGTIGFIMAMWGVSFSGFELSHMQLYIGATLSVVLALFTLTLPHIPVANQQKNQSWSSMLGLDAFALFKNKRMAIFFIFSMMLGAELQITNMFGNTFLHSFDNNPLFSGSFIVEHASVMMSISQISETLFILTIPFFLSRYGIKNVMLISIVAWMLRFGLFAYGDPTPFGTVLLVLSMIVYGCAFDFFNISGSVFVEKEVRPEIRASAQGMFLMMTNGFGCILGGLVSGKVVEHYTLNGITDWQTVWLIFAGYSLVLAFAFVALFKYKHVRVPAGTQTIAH
Described as above. Format: cell-based. The note with it: read-out: Inhibition by Other Nucleosides / Ki (μM) (Cytidine). An excerpt:
inhibition of [3H]-gemcitabine uptake in E. coli JW2389 on CfNupG

The target in a further data set is T5, KpNupG (Klebsiella pneumoniae, UniProt A6TDX2).
T5 construct: gene nupG; full-length, C-terminal biotin-acceptor domain tag (pT7-5/-BAD), expressed in E. coli JW2389 (nupC knockout)
T5 sequence (A6TDX2 1-417): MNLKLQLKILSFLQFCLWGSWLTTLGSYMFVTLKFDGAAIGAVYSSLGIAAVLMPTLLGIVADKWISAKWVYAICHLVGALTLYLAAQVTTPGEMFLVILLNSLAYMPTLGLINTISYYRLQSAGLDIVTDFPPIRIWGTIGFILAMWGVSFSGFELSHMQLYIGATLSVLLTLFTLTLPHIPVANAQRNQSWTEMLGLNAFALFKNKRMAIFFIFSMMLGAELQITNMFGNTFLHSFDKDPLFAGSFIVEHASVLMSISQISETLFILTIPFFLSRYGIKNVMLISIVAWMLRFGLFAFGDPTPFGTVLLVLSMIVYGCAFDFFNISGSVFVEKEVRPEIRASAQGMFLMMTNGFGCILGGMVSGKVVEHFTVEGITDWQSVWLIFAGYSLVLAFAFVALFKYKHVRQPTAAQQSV
Described as above. Format: cell-based. An excerpt:
inhibition of [3H]-gemcitabine uptake in E. coli JW2389 on KpNupG

The target in the next data set is T6, KpNupC2 (Klebsiella pneumoniae, UniProt A6T7A8).
T6 construct: gene nupC; full-length, C-terminal biotin-acceptor domain tag (pT7-5/-BAD), expressed in E. coli JW2389 (nupC knockout)
T6 sequence (A6T7A8 entry or part of it): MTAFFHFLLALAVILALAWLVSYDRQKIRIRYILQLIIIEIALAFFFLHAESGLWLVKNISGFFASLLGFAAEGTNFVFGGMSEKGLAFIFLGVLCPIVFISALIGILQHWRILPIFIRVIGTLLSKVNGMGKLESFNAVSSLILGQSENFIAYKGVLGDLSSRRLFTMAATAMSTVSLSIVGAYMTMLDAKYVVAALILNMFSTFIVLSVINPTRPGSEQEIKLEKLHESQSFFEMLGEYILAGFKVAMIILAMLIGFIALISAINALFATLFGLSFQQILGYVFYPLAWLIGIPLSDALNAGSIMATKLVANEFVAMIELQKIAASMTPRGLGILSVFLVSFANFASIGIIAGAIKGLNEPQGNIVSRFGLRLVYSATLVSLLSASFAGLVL
Described as above. Format: cell-based. An excerpt:
inhibition of [3H]-gemcitabine uptake in E. coli JW2389 on KpNupC2

The next data set deals with T7, NupG (Escherichia coli, UniProt P0AFF4).
T7 construct: full-length, C-terminal biotin-acceptor domain tag (pT7-5/-BAD), expressed in E. coli JW2389 (nupC knockout)
T7 sequence (P0AFF4 1-418): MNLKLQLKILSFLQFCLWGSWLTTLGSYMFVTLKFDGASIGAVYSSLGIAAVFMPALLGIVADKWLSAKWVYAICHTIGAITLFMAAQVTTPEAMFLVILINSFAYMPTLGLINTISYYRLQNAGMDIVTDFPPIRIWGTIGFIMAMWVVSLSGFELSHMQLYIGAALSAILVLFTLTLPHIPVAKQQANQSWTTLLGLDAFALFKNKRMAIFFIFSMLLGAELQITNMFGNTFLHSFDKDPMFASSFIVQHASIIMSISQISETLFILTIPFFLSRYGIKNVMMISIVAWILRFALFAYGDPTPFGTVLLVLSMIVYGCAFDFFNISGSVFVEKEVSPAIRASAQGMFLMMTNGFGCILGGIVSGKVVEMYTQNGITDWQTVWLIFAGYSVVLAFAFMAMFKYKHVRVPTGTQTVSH
The data set is described as above. Format: cell-based. An excerpt:
inhibition of [3H]-gemcitabine uptake in E. coli JW2389 on NupG

Data set [1] relates to Nc1ccn([C@@H]2O[C@H](CO)[C@@H](O)C2(F)F)c(=O)n1. As to the kind of experiment: cells, lysate or membranes. The format is cell-based, Citrobacter freundii. The note with it: labelled compound, pH 6.5, 25 °C, glycerol-energized cells.
For data set [2] the test system is unchanged. As to the kind of experiment: cells, lysate or membranes. Format: cell-based, Klebsiella pneumoniae. The note with it: labelled compound, pH 6.5, 25 °C, glycerol-energized cells.
For data set [3] the test system is unchanged. As to the kind of experiment: cells, lysate or membranes. The note with it: labelled compound, pH 6.5, 25 °C, glycerol-energized cells.
For data set [4] the test system is unchanged. As to the kind of experiment: cells, lysate or membranes. Format: cell-based, Escherichia coli. The note with it: labelled compound, pH 6.5, 25 °C, glycerol-energized cells.
Substrate in data set [5]: Nc1ccn([C@@H]2O[C@H](CO)[C@@H](O)C2(F)F)c(=O)n1
As to the kind of experiment: cells, lysate or membranes. The note with it: labelled compound, pH 6.5, 25 °C, glycerol-energized cells. The source holds these as a separate data set.

Where [6] appears, read: read-out: Inhibition by Other Nucleosides / Ki (μM) (Cytidine).

Where two headings read alike, the source gives them in different places.

T2 sequence (A0A0H3H172 entry or part of it): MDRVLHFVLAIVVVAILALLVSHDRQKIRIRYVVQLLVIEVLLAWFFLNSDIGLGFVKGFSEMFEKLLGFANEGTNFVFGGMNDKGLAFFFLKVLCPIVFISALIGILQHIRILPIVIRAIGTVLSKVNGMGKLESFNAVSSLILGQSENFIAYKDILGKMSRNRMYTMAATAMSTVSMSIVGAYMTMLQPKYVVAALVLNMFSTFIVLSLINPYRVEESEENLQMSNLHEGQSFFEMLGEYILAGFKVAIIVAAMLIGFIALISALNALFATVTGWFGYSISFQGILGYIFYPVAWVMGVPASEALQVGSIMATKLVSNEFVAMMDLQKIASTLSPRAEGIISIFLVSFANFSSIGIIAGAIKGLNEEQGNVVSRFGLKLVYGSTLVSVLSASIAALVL
T3 sequence (A0A0D7LF62 entry or part of it): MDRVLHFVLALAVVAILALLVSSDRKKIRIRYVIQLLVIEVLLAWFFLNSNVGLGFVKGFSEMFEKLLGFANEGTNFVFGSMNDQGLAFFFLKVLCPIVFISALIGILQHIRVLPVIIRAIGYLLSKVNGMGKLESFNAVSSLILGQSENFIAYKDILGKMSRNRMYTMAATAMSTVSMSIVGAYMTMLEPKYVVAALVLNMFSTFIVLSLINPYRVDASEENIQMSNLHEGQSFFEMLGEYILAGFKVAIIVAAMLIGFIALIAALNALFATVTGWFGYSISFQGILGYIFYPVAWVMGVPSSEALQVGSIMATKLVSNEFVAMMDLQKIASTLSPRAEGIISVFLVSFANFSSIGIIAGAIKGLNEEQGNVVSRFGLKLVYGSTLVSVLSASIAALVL

As to `Nc1ncnc2c1ncn2[C@@H]1O[C@H](CO)[C@@H](O)[C@H]1O` [adenosine], the Ki on NupC was 5.4 ± 1.4 µM; on KpNupC (read-out: Inhibition by Other Nucleosides / Ki (μM) (Adenosine)) it was 7.7 ± 0.8 µM.

Turning to `Nc1ccn([C@@H]2O[C@H](CO)[C@@H](O)[C@H]2O)c(=O)n1` [cytidine], the Ki stood at 7.2 ± 1.4 µM at CfNupC; 20.2 ± 3.8 µM at CfNupG; 6.7 ± 1.3 µM at KpNupC (setting [6]); 18.1 ± 4 µM on KpNupG (setting [6]); 6.5 ± 1 µM at KpNupC2 (setting [6]).

Regarding `Nc1nc2c(ncn2[C@@H]2O[C@H](CO)[C@@H](O)[C@H]2O)c(=O)[nH]1` [guanosine], the Ki on NupG amounted to 15.3 ± 5.8 µM; on KpNupG (read-out: Inhibition by Other Nucleosides / Ki (μM) (Guanosine)), 18.3 ± 4.5 µM.

For `O=c1ccn([C@@H]2O[C@H](CO)[C@@H](O)[C@H]2O)c(=O)[nH]1` [uridine], the Ki at KpNupC2 is 6.1 ± 1 µM.

The term Km denotes the concentration of substrate that gives half-maximal velocity. A word on the Vmax: it is the top rate of the reaction or transport when substrate is in excess. CfNupC (Citrobacter freundii): in [1], the Michaelis-Menten constant (Km) was found to be 12.8 ± 1.3 µM, the Vmax was determined as 0.102 µmol/min/mg and the Vmax/Km is 7800 µL/min/mg.

CfNupG (Citrobacter freundii): in data set [1], the Km came out at 2.7 ± 0.3 µM, the maximal velocity (Vmax) turned out to be 0.0474 µmol/min/mg and the Vmax/Km worked out at 17200 µL/min/mg.

For “KpNupC2 (Klebsiella pneumoniae subsp. pneumoniae MGH 78578)”, in data set [2], the Km was 11.6 ± 3.2 µM, the Vmax turned out to be 0.0873 µmol/min/mg and the Vmax/Km stood at 7500 µL/min/mg.

On to “KpNupC (Klebsiella pneumoniae subsp. pneumoniae HS11286)”, for which, in [3], the Km came to 10.9 ± 2.0 µM, the Vmax was found to be 0.0928 µmol/min/mg and the Vmax/Km turned out to be 8600 µL/min/mg.

For NupC (Escherichia coli K-12), in data set [4], the Km was 9.8 ± 1.0 µM, the Vmax amounted to 0.0994 µmol/min/mg and the Vmax/Km turned out to be 10100 µL/min/mg.

B1: NupG (Escherichia coli K-12) (protein)
chain: T7 sequence (P0AFF4 1-418)
Turning to B1, in [5], the Km stood at 2.8 ± 0.4 µM, the maximal velocity (Vmax) was 0.0461 µmol/min/mg and the Vmax/Km came to 16600 µL/min/mg.

B2: KpNupG (Klebsiella pneumoniae subsp. pneumoniae MGH 78578) (protein)
chain: T5 sequence (A6TDX2 1-417)
Consider B2, for which, in data set [5], the Km came out at 2.8 ± 0.3 µM, the Vmax came to 0.0456 µmol/min/mg and the Vmax/Km is 17100 µL/min/mg.

(Values after paper PMC11241209, “Elucidation of the Gemcitabine Transporters of Escherichia coli K-12 and Gamma-Proteobacteria Linked to Gemcitabine-Related Chemoresistance” (International Journal of Molecular Sciences, 2024).)
